Holding throughout (assay): SPR (BIACORE); KD of SG1 divided by KD of variant;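 further: relative to parent M103205H795-SG1 carrying the SG1 human heavy chain constant region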
Experiment [1] concerns the target T1, cynomolgus monkey FcγRIIa3 extracellular domain, His-tagged (cynomolgus monkey).
T1 construct: also called cyno FcγRIIa3; cynoFcgRIIa3; not shown: C-terminal His-tag
T1 chain: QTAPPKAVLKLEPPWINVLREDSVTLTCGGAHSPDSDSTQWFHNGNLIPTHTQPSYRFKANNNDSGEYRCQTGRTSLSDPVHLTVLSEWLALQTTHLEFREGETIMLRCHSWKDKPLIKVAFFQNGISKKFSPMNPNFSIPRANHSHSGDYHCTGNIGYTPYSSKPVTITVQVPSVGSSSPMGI

Experiment [2] has as its target T2, cynomolgus monkey FcγRIIIaS extracellular domain, His-tagged (cynomolgus monkey, UniProt Q8SPW2 21-206 at identity 1.00)).
T2 construct: also called cyno FcγRIIIaS; cynoFcγRIIIaS; not shown: C-terminal His-tag
T2 chain: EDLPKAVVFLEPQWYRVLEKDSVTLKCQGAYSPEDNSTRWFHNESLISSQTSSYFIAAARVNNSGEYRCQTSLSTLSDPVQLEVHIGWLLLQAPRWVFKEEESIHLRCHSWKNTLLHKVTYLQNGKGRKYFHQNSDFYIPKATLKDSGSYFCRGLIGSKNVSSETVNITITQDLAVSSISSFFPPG

For experiment [3], the target named is T3, human FcγRIIb extracellular domain, His-tagged (human, UniProt P31994 43-217).
T3 construct: also called FcgRIIb (human); not shown: C-terminal His-tag
T3 sequence: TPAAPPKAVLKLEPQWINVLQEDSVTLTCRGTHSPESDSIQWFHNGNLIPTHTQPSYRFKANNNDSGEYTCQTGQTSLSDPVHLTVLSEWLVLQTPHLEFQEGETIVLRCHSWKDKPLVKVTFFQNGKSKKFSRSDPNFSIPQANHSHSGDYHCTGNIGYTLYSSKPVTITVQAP

The target of experiment [4] is T4, cynomolgus monkey FcγRIIb extracellular domain, His-tagged (cynomolgus monkey).
T4 construct: also called cyno FcγRIIb; cynoFcγRIIb; not shown: C-terminal His-tag
T4 chain: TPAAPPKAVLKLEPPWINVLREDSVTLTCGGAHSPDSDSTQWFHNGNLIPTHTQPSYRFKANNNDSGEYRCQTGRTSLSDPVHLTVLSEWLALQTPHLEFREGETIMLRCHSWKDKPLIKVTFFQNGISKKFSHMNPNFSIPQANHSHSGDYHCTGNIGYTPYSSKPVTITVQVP

Experiment [5] addresses T5, human FcγRIIaH extracellular domain, His-tagged (human, UniProt P12318 34-217).
T5 construct: also called human FcγRIIa (type H); FcgRIIaH; not shown: C-terminal His-tag
T5 sequence: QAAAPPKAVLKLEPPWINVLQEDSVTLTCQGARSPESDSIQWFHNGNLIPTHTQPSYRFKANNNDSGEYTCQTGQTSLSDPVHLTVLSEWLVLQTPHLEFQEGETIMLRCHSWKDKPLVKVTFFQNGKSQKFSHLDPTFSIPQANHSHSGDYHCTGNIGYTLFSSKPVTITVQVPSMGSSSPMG

The target of experiment [6] is T6, human FcγRIIaR extracellular domain, His-tagged (human, UniProt P12318 34-217).
T6 construct: also called human FcγRIIa (type R); FcgRIIaR; not shown: C-terminal His-tag
T6 chain: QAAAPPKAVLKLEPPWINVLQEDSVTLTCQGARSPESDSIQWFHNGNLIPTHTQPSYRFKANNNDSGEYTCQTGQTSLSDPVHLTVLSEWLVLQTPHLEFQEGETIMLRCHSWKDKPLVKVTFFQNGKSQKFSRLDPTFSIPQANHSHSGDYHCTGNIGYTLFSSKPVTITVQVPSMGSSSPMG

For experiment [7], the target named is T7, cynomolgus monkey FcγRIIa1 extracellular domain, His-tagged (cynomolgus monkey).
T7 construct: also called cyno FcγRIIa1; cynoFcgRIIa1; not shown: C-terminal His-tag
T7 chain: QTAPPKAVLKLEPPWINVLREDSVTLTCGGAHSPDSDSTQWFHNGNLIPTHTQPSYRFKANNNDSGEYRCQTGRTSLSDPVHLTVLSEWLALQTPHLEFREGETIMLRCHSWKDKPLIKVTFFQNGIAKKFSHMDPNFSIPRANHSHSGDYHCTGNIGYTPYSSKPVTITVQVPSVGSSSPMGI

Experiment [8] addresses T8, cynomolgus monkey FcγRIIa2 extracellular domain, His-tagged (cynomolgus monkey).
T8 construct: also called cyno FcγRIIa2; cynoFcgRIIa2; not shown: C-terminal His-tag
T8 chain: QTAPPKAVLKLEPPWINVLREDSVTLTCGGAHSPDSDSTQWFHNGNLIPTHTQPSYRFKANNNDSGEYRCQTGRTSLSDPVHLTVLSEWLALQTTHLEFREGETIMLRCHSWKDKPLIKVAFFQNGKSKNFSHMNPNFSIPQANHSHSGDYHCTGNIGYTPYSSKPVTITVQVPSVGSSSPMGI

Experiment [9] concerns the target T9, human FcγRIIIaV extracellular domain, His-tagged (human, UniProt P08637 17-208).
T9 construct: also called FcgRIIIaV; not shown: C-terminal His-tag

T9 sequence (P08637 17-208 F176V): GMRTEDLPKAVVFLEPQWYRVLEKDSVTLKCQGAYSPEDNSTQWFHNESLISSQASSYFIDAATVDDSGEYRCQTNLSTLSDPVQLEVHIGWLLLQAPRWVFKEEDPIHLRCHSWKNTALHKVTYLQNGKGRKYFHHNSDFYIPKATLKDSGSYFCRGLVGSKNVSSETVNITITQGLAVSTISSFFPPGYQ

B1: M103205H795-MY473/M103202L889-SK1 (antibody, human IgG1, kappa)
heavy: QVTLKESGPVLVKPTETLTLTCTVSGIDLSHDDISWVRQAPGKGLEWVGIISYAGSTYYASWAKGRLTISKDTSKNQVVLTMTNMDPVDTATYYCARGVPAYSHGGDLWGQGTLVTVSSASTKGPSVFPLAPSSKSTSGGTAALGCLVKDYFPEPVTVSWNSGALTSGVHTFPAVLQSSGLYSLSSVVTVPSSSLGTQTYICNVNHKPSNTKVDKKVEPKSCDKTHTCPPCPTPELLTGPSVFLFPPKPKDTLMISRTPEVTCVVVDVSDEDPEVKFNWYVDGVEVHNAKTKPREEQYNSTYRVVSVLTVLHQDWLNGKEYKCKVSNKALPKPIEKTISKAKGQPREPQVYTLPPSREEMTKNQVSLTCLVKGFYPSDIAVEWESNGQPENNYKTTPPVLDSDGSFFLYSKLTVDKSRWQQGNVFSCSVMHEALHNHYTQKSLSLSP
light: DIVMTQSPATLSLSPGERATLSCTSSQSVYHANWLSWFQQKPGQPPKLLIYWASTLAYGVPSRFSGSGSGTDFTLTISSLQPEDAATYYCAGGYGGGRYAFGQGTKVEIKRTVAAPSVFIFPPSDEQLKSGTASVVCLLNNFYPREAKVQWKVDNALQSGNSQESVTEQDSKDSTYSLSSTLTLSKADYEKHKVYACEVTHQGLSSPVTKSFNRGEC
notes: copies: 2 + 2
For the molecule B1, the “KD fold (SG1 = 1)” value in experiment [1] worked out at 3.1 fold; in [2] it was 0.2 fold; in experiment [3], 2.1 fold; in experiment [4], 3.1 fold; in [5] it was 3.1 fold; in experiment [6], 2.2 fold. Also, the figures for the “KD fold (SG1 = 1)” value in experiment [7], in experiment [8] and in experiment [9] were 2 fold, 2 fold and 0.2 fold, respectively.

B2: M103205H795-MY474/M103202L889-SK1 (antibody, human IgG1, kappa)
heavy: QVTLKESGPVLVKPTETLTLTCTVSGIDLSHDDISWVRQAPGKGLEWVGIISYAGSTYYASWAKGRLTISKDTSKNQVVLTMTNMDPVDTATYYCARGVPAYSHGGDLWGQGTLVTVSSASTKGPSVFPLAPSSKSTSGGTAALGCLVKDYFPEPVTVSWNSGALTSGVHTFPAVLQSSGLYSLSSVVTVPSSSLGTQTYICNVNHKPSNTKVDKKVEPKSCDKTHTCPPCPVPELLTGPSVFLFPPKPKDTLMISRTPEVTCVVVDVSDEDPEVKFNWYVDGVEVHNAKTKPREEQYNSTYRVVSVLTVLHQDWLNGKEYKCKVSNKALPKPIEKTISKAKGQPREPQVYTLPPSREEMTKNQVSLTCLVKGFYPSDIAVEWESNGQPENNYKTTPPVLDSDGSFFLYSKLTVDKSRWQQGNVFSCSVMHEALHNHYTQKSLSLSP
light: DIVMTQSPATLSLSPGERATLSCTSSQSVYHANWLSWFQQKPGQPPKLLIYWASTLAYGVPSRFSGSGSGTDFTLTISSLQPEDAATYYCAGGYGGGRYAFGQGTKVEIKRTVAAPSVFIFPPSDEQLKSGTASVVCLLNNFYPREAKVQWKVDNALQSGNSQESVTEQDSKDSTYSLSSTLTLSKADYEKHKVYACEVTHQGLSSPVTKSFNRGEC
notes: copies: 2 + 2
On to B2, for which the “KD fold (SG1 = 1)” value was determined as 3.5 fold in experiment [1]; 0.2 fold in experiment [2]; 2.3 fold in [3]; 3.6 fold in [4]; 4.1 fold in experiment [5]; 3.2 fold in experiment [6]. In addition, the “KD fold (SG1 = 1)” value in [7] worked out at 1.6 fold; in experiment [8] it was 2.8 fold; in [9], 0.2 fold.

B3: M103205H795-MY475/M103202L889-SK1 (antibody, human IgG1, kappa)
heavy: QVTLKESGPVLVKPTETLTLTCTVSGIDLSHDDISWVRQAPGKGLEWVGIISYAGSTYYASWAKGRLTISKDTSKNQVVLTMTNMDPVDTATYYCARGVPAYSHGGDLWGQGTLVTVSSASTKGPSVFPLAPSSKSTSGGTAALGCLVKDYFPEPVTVSWNSGALTSGVHTFPAVLQSSGLYSLSSVVTVPSSSLGTQTYICNVNHKPSNTKVDKKVEPKSCDKTHTCPPCPWPELLTGPSVFLFPPKPKDTLMISRTPEVTCVVVDVSDEDPEVKFNWYVDGVEVHNAKTKPREEQYNSTYRVVSVLTVLHQDWLNGKEYKCKVSNKALPKPIEKTISKAKGQPREPQVYTLPPSREEMTKNQVSLTCLVKGFYPSDIAVEWESNGQPENNYKTTPPVLDSDGSFFLYSKLTVDKSRWQQGNVFSCSVMHEALHNHYTQKSLSLSP
light: DIVMTQSPATLSLSPGERATLSCTSSQSVYHANWLSWFQQKPGQPPKLLIYWASTLAYGVPSRFSGSGSGTDFTLTISSLQPEDAATYYCAGGYGGGRYAFGQGTKVEIKRTVAAPSVFIFPPSDEQLKSGTASVVCLLNNFYPREAKVQWKVDNALQSGNSQESVTEQDSKDSTYSLSSTLTLSKADYEKHKVYACEVTHQGLSSPVTKSFNRGEC
notes: copies: 2 + 2
Turning to B3, the “KD fold (SG1 = 1)” value in experiment [1] stood at 7.4 fold; in experiment [2] it was 0.2 fold; in [3], 4.2 fold; in [4], 8.7 fold; in experiment [5] it was 7.7 fold; in [6] it was 3.2 fold. Also, the “KD fold (SG1 = 1)” value in experiment [7] stood at 3.2 fold; in experiment [8], 3.1 fold; in [9], 0.2 fold.

B4: M103205H795-MY476/M103202L889-SK1 (antibody, human IgG1, kappa)
heavy: QVTLKESGPVLVKPTETLTLTCTVSGIDLSHDDISWVRQAPGKGLEWVGIISYAGSTYYASWAKGRLTISKDTSKNQVVLTMTNMDPVDTATYYCARGVPAYSHGGDLWGQGTLVTVSSASTKGPSVFPLAPSSKSTSGGTAALGCLVKDYFPEPVTVSWNSGALTSGVHTFPAVLQSSGLYSLSSVVTVPSSSLGTQTYICNVNHKPSNTKVDKKVEPKSCDKTHTCPPCPYPELLTGPSVFLFPPKPKDTLMISRTPEVTCVVVDVSDEDPEVKFNWYVDGVEVHNAKTKPREEQYNSTYRVVSVLTVLHQDWLNGKEYKCKVSNKALPKPIEKTISKAKGQPREPQVYTLPPSREEMTKNQVSLTCLVKGFYPSDIAVEWESNGQPENNYKTTPPVLDSDGSFFLYSKLTVDKSRWQQGNVFSCSVMHEALHNHYTQKSLSLSP
light: DIVMTQSPATLSLSPGERATLSCTSSQSVYHANWLSWFQQKPGQPPKLLIYWASTLAYGVPSRFSGSGSGTDFTLTISSLQPEDAATYYCAGGYGGGRYAFGQGTKVEIKRTVAAPSVFIFPPSDEQLKSGTASVVCLLNNFYPREAKVQWKVDNALQSGNSQESVTEQDSKDSTYSLSSTLTLSKADYEKHKVYACEVTHQGLSSPVTKSFNRGEC
notes: copies: 2 + 2
Take B4: the “KD fold (SG1 = 1)” value in experiment [1] is 6.5 fold; in experiment [2], 0.2 fold; in experiment [3], 3.8 fold; in experiment [4] it was 4.6 fold; in experiment [5], 4.9 fold; in experiment [6], 4.4 fold. The “KD fold (SG1 = 1)” value was determined as 2.3 fold in [7], 3.9 fold in experiment [8] and 0.1 fold in [9].

Source of the values: patent publication US20200317768A1 (published 2020).
